For experiment [1], the system named is ΔM-N L-selectin-GFP/RFP in THP-1 cells. The experiment is described as follows: Phos-tag Western blot of L-selectin serine phosphorylation. The note with it: 100 nM PMA, 15 min; phos-tag gel. The format is cell-based, human.
For another experiment, the system named is THP-1 cells. In words: Antibody-mediated clustering (AMC) of L-selectin-GFP/RFP, FLIM/FRET. The class given is cell-based, human. The note with it: DREG56 plus secondary antibody. The source says:
(A) Schematic representation of the cleavage site, transmembrane domain (TMD), and cytoplasmic tail of human L-selectin. Red underlined region of the cleavage site denotes the amino acids that are deleted in ΔM-N L-selectin. […] Red arrow points to the position of the cut site of the L-selectin cleavage domain. (B) Cells expressing matched levels of L-selectin-GFP/RFP in the following forms: WT, ΔM-N, SSAA, ΔM-N^SSAA, and R357A were subjected to AMC using Alexa Fluor 647-conjugated DREG56 or isotype-matched control, followed by goat anti-mouse secondary antibody (see Materials and Methods for more detail). Cells were plated onto poly-L-lysine-coated coverslips and prepared for FLIM/FRET analysis (see materials and methods). FLIM was used to measure the FRET efficiency between the GFP/RFP donor/acceptor pairs as a direct function of cytoplasmic tail clustering […]. At least 45 individual cells were analyzed over 3 independent clustering assays. (C) Representative images are shown for each cell line. The lifetime of fluorescence (Lftm) is expressed in a pseudocolour scale from red (low lifetime with a very high probability of interaction) to blue (high lifetime with a very low probability of interaction). […] Cells were lysed directly in protein loading buffer (containing the reducing agent, dithiothreitol) and resolved onto standard (lower panel) or phos-tag (upper panel) polyacrylamide gels. Antibodies to GFP and RFP were used to, respectively, probe ΔM-N and ΔM-N^SSAA on Western blots. […] Statistics: One-Way ANOVA Tukey's multiple comparison test. **p ≤ 0.01; ***p ≤ 0.001; ****p ≤ 0.0001.
THP-1 cells were adjusted the night before AMC to a density of 0.5 ×10^6 cells per mL. On the same day, 13 mm diameter glass coverslips (thickness “1”) were placed into the base of a 24 well dish, spotted with 100 μL of poly-L-lysine (PLL) to immobilize according to manufacturer's instruction. On the day of the assay, THP-1 cells were counted and adjusted to a density of 1 ×10^6 per mL in 500 μL containing antibody labeling buffer (RPMI culture medium containing FcR block [Miltenyi Biotec]). Cells were labeled with 2 μg per mL DREG56 for 30 min at 4°C, followed by washing (by centrifugation at 300 g and resuspension) in ice cold culture media to remove excess unbound antibody and then incubated back in ice cold labeling buffer containing secondary antibody conjugated to Alexa Fluor […] (Thermo Fisher) for a further 30 min at 4°C. Cells were then washed twice in ice cold neat RPMI and resuspended to 100 μL of neat ice cold RPMI before 80 μL of the cell suspension was seeded onto 13 mm diameter glass coverslips (thickness = “1”), which were pre-coated with PLL-coated the night before. The seeded cells were placed into a humidified cell culture incubator at 37°C and 5% CO2 for 10 min to drive clustering. Adhered cells were flooded in excess 4% paraformaldehyde and fixed for 15 min at room temperature. Fixed coverslips were washed 3 times in PBS and then treated in 10 mg/mL of Sodium Borohydride dissolved in phosphate buffered saline for 10 min at room temperature (to eliminate autofluorescence and enhance signal to noise ratios). Coverslips were subsequently washed in PBS to remove sodium borohydride and mounted using DAKO mounting medium.
FLIM measurement of FRET was performed with a multiphoton microscope system as described previously ([8], [23]). A Nikon TE2000E inverted microscope, combined with an in-house scanner and Chameleon Ti:Sapphire ultrafast pulsed multiphoton laser (Coherent Inc.), was used for excitation of GFP (at 890 nm). Fluorescence lifetime imaging capability was provided by time-correlated, single-photon counting electronics (SPC 700; Becker & Hickl). A 40 × objective (NA 1.3) was used throughout (CFI60 Plan Fluor; Nikon), and data were acquired at 500 ± 20 nm through a bandpass filter (35–5040; Coherent Inc.). […]

The next experiment has as its system ERM. The following applies: biochemically and in cells; cited from earlier work. From the text: The cytoplasmic tail of L-s ...

Results on 2 molecules are retold here after PMC6774396 (Frontiers in Immunology, 2019).

In the case of `CCCCCCCCCCCCCC(=O)O[C@@H]1[C@@H](C)[C@@]2(O)[C@@H](C=C(CO)C[C@]3(O)C(=O)C(C)=C[C@@H]23)[C@@H]2C(C)(C)[C@]12OC(C)=O` [PMA, phorbol myristate acetate], the “serine phosphorylation of L-selectin” value in experiment [1] is reported as “serine phosphorylation was detected only when cells were robustly stimulated with the phorbol ester, PMA”.

B1: R357A: ERM-binding mutant of L-selectin, arginine 357 mutated to alanine (protein)
chain: WTYHYSEKPMNWQRARRFCRDNYTDLVAIQNKAEIEYLEKTLPFSRSYYWIGIRKIGGIWTWVGTNKSLTEEAENWGDGEPNNKKNKEDCVEIYIKRNKDAGKWNDDACHKLKAALCYTASCQPWSCSGHGECVEIINNYTCNCDVGYYGPQCQFVIQCEPLEAPELGTMDCTHPLGNFSFSSQCAFSCSEGTNLTGIEETTCGPFGNWSSPEPTCQVIQCEPLSAPDLGIMNCSHPLASFSFTSACTFICSEGTELIGKKKTICESSGIWSNPSPICQKLDKSFSMIKEGDYNPLFIPVAVMVTAFSGLAFIIWLARALKKGKKSKRSMNDPY
modifications: left off: eGFP (donor copy) or mCherry (acceptor copy, called RFP), C-terminal, kept
Consider B1, for which the “change in FRET efficiency on AMC or versus comparator (in words)” value in the experiment on THP-1 cells is “lacked any significant increase in FRET efficiency”. Also, the “FRET efficiency after AMC” value with THP-1 cells (10 min at 37°C, GFP/RFP pair, at least 45 cells, 3 independent assays) was determined as 2.47%. Further, in the experiment on ERM, the L-selectin/ERM interaction entry is “block L-selectin/ERM interaction”.
